B1: TGTGTATAAAGGGGCGGTGAAAAGCGAAT (nucleic acid)
DNA: ATCCACGAGTGACGCAGCACAGTGATCAGTTGTGTATAAAGGGGCGGTGAAAAGCGAATTCCAGTCGACTGGACACGGTGGCTTAGT
modifications: listed as DNA, chemistry not given here
notes: TIC-specific DNA aptamer
B2: GACGAGCTAAGAACCTTTAGGAGTGGAAA (nucleic acid)
DNA: ATCCACGAGTGACGCAGCACAGAGTGGAAGACGAGCTAAGAACCTTTAGGAGTGGAAAAGATAGCTCATGGACACGGTGGCTTAGT
modifications: DNA, backbone and methylation of C not given here
notes: TIC-specific DNA aptamer
B3: CCGTAGCTACGACGGAGGAAACTATGTTA (nucleic acid)
DNA: ATCCACGAGTGACGCAGCATGTTTAGGAAACCGTAGCTACGACGGAGGAAACTATGTTAAACATCCCCATGGACACGGTGGCTTAGT
modifications: DNA, backbone and methylation of C not given here
notes: TIC-specific DNA aptamer
B4: AAAGCTCCTTGGAATAGTCTAATACCGGA (nucleic acid)
DNA: ATCCACGAGTGACGCAGCACGAGCAACACAAAAGCTCCTTGGAATAGTCTAATACCGGAGCGAGAAAGCTGGACACGGTGGCTTAGT
modifications: listed as DNA, chemistry not given here
notes: TIC-specific DNA aptamer
B5: AGAACTGGCCTTACTACGAAAAGTCCTTG (nucleic acid)
DNA: ATCCACGAGTGACGCAGCACCGAGAGGAGAGAACTGGCCTTACTACGAAAAGTCCTTGGTTGCCAGGGGTGGACACGGTGGCTTAGT
modifications: listed as DNA, chemistry not given here
notes: TIC-specific DNA aptamer

Legend:
[1] = tested on: GS5; experiment: GS5 sphere formation (TIC self-renewal); format: cell-based
Source text: (§2) We further evaluated whether this drug delivery system can be used to treat TIC-derived tumors. […] We successfully encapsulated DI into our brain-penetration nanoparticles, which were administrated via a single infusion into rat brains bearing GS5-derived tumors.

[2] = tested on: CD133+ cell population; experiment: CD133+ cell population; format: cell-based
Source text: as §2

[3] = tested on: GS5, a well-characterized TIC line; experiment: GS5 proliferation; format: cell-based
[4] = tested on: GS5-derived tumors; experiment: Survival of rats bearing GS5-derived brain tumors after a single infusion; format: in vivo; details: single infusion into rat brains bearing GS5-derived tumors
Source text: as §2

[5] = tested on: GBM cells from GBM1 (08-387), GBM2 (4121), GBM3 (08-322), GBM4 (3691) xenografts; experiment: Neurosphere formation assay of aptamer-high vs aptamer-low GBM cells; format: cell-based, human; details: four GBMs tested
Method: After overnight recovery of GBM cells from tissue dissociation, each Cy5-labeled aptamer was incubated with each specimen for 30 min. After washing thrice, labeled GBM cells were subjected to cell sorting. For the sphere formation assay, 10 cells of either aptamer^high and aptamer^low GBM cells sorted by FACS were directly plated into each well of a six well plate containing 200 μL of TIC culturing medium similar to our prior descriptions. After 10 to 14 days, the number of tumorspheres in each well was counted and plotted. For the cell proliferation assay, aptamer^high and aptamer^low GBM cells were sorted into each 15 mL tube, and equal numbers of cells were plated into 96 wells. Differences in cell growth were measured using Cell-Titer Glow (Promega™) according to the manufacturer's instructions and prior reports. Hjelmeland et al., PLoS biology, 8:e1000319 (2010); Li et al., Cancer cell, 15:501-13 (2009).

[6] = tested on: GBM1 (08-387) cells injected intracranially; experiment: In vivo tumorigenic potential of aptamer-high vs aptamer-low GBM cells; parameters: species or system mice; details: for tumor incidence, aptamer-high cells / tumor incidence, aptamer-low cells: 300 cells implanted; for survival of mice injected with aptamer-high cells: 3000 or 300 cells intracranially, vs aptamer-low cells
Method: To determine tumorigenic potential, 300 or 3000 viable aptamer^high or aptamer^low GBM cells were intracranially injected into athymic/nude immunocompromised mice as we have previously described. Animals were maintained until the development of neurological signs including lethargy, seizure, ataxia, or paralysis or for a maximum of 60 days, when they were sacrificed. All animal procedures were performed in accordance with a Cleveland Clinic IACUC approved protocol.

[7] = tested on: ReNCell CX immortalized human neural progenitors or primary human fetal neural progenitors; experiment: Flow cytometry aptamer binding to non-neoplastic neural progenitors
Method: (§1) Each FITC-labeled aptamer candidate was incubated with TICs or non-TICs in binding buffer on ice for 30 min. The cells were washed three times with binding buffer, and the pellets with the bound sequences were resuspended in 200 μL binding buffer. The fluorescence intensity was determined with a LSR II (BD Immunocytometry Systems) by counting 10,000 events. The FITC-labeled unselected single strand DNA library was used as a negative control. To determine the specificity of the selected aptamers, aptamer binding to additional GBM cells (08-322, 4121, U87MG) or neural progenitors (RenCell c-myc immortalized human neural progenitors, Millipore; human fetal neural progenitors, Lonza) was determined. For determination of aptamer binding to differentiated TICs, TICs were plated on Geltrex-coated plates in the presence of 10% serum and harvested after five days for FACS analysis.

[8] = tested on: TICs; experiment: Flow cytometry to monitor aptamer binding to TICs; parameters: species or system human; details: GBM1, GBM2, GBM3
Method: as §1
To further evaluate the specificity of TIC-enriched aptamers, the fold change in fluorescence was calculated. Fluorescence shift was calculated using the equation (Faptamer−Fcell)/(Flibrary−Fcell), where Faptamer, Flibrary and Fcell refers to the fluorescence value of the aptamer, library, and cell itself. Using this calculation, specificity of aptamers A2-A6 for TICs in comparison to non-TICs was shown for all three GBMs tested (FIG. 2A-C).

| Molecule | neurosphere formation capacity of aptamer-enriched cells [5] | tumor incidence, aptamer-high cells [6] | tumor incidence, aptamer-low cells [6] | survival of mice injected with aptamer-high cells [6] | other results |
| --- | --- | --- | --- | --- | --- |
| CCN1/C(=C/C=C/C=C/c2sc3ccccc3[n+]2CC)Sc2ccccc21 [DI, dithiazanine iodide] | – | – | – | – | inhibition of GS5 sphere formation [1]: 94%; decrease of the CD133+ cell population [2]: 57%; IC50 [3]: 79 nM; median survival [4]: 177 days |
| B1 | greater neurosphere formation capacity in three of four GBMs tested | All mice | 2 of 4 | significantly reduced | binding to nonneoplastic neural progenitors [7]: bound both sets of non-neoplastic brain cells |
| B2 | greater neurosphere formation capacity in three of four GBMs tested | – | – | – | fluorescence shift (Faptamer−Fcell)/(Flibrary−Fcell): specificity for TICs in comparison to non-TICs [8]: greater binding to TICs in GBM1 and GBM2, but not GBM3 |
| B3 | significantly segregated cells with neurosphere formation capacity in all four GBMs tested | – | – | – | – |
| B4 | significantly segregated cells with neurosphere formation capacity in all four GBMs tested | All mice | 3 of 4 | significantly reduced | – |
| B5 | significantly segregated cells with neurosphere formation capacity in all four GBMs tested | – | – | – | – |

From patent US9731032B2, “Aptamers for tumor initiating cells” (THE CLEVELAND CLINIC FOUNDATION, priority 2013, dated 2017)
